Measured values published in patent publication US20210292396A1.
Values joined by “and” are separate entries in the source; they are usually repeats but may differ in a detail not shown here. Identical values can stand only once.

Key:
Assay in all cases: cell-based or functional assay
[1] = molecular target: HIV Env of isolate 0260.v5.c36 (HIV)
[2] = molecular target: HIV Env of isolate 0330.v4.c3 (HIV)
[3] = molecular target: HIV Env of isolate 1012_11_TC21_3257 (HIV)
[4] = molecular target: HIV Env of isolate 1056_10_TA11_1826 (HIV)
[5] = molecular target: HIV Env of isolate 1394C9G1(Rev-) (HIV)
[6] = molecular target: HIV Env of isolate 263-8 (HIV)
[7] = molecular target: HIV Env of isolate 3103.v3.c10 (HIV)
[8] = molecular target: HIV Env of isolate 3301.v1.c24 (HIV)
[9] = molecular target: HIV Env of isolate 6041.v3.c23 (HIV)
[10] = molecular target: HIV Env of isolate 62357_14_D3_4589 (HIV)
[11] = molecular target: HIV Env of isolate 6244_13_B5_4576 (HIV)
[12] = molecular target: HIV Env of isolate 6811.v7.c18 (HIV)
[13] = molecular target: HIV Env of isolate 6952.v1.c20 (HIV)
[14] = molecular target: HIV Env of isolate CAP45.2.00.G3 (HIV)
[15] = molecular target: HIV Env of isolate Ce1172_H1 (HIV)
[16] = molecular target: HIV Env of isolate Ce1176_A3 (HIV)
[17] = molecular target: HIV Env of isolate Ce704809221_1B3 (HIV)
[18] = molecular target: HIV Env of isolate Du156.12 (HIV)
[19] = molecular target: HIV Env of isolate Du422.1 (HIV)
[20] = molecular target: HIV Env of isolate HIV-001428-2.42 (HIV)
[21] = molecular target: HIV Env of isolate HIV-16845-2.22 (HIV)
[22] = molecular target: HIV Env of isolate QH0692.42 (HIV)
[23] = molecular target: HIV Env of isolate REJO4541.67 (HIV)
[24] = molecular target: HIV Env of isolate SC422661.8 (HIV)
[25] = molecular target: HIV Env of isolate T211-9 (HIV)
[26] = molecular target: HIV Env of isolate T251-18 (HIV)
[27] = molecular target: HIV Env of isolate TRJO4551.58 (HIV)
[28] = molecular target: HIV Env of isolate WITO4160.33 (HIV)
[29] = molecular target: HIV Env of isolate X1193_c1 (HIV)
[30] = molecular target: HIV Env of isolate ZM109F.PB4 (HIV)
[31] = molecular target: HIV Env of isolate ZM214M.PL15 (HIV)
[32] = molecular target: HIV Env of isolate ZM233M.PB6 (HIV)
[33] = molecular target: HIV Env of isolate ZM249M.PL1 (HIV)
[34] = molecular target: HIV Env of the 113-member cross-clade virus panel (Table 6)

B1: ePGT121.15.H2.L1 (antibody, V domains shown)
VH: QMQLQESGPGLVKPGETLSLTCSVSGASISSSYWSWLRETPGKGLEWIGYTHHSGDTNYAPSLKSRVHLGLHPSKNQVSLSLTSVTAADTAVYYCARTLHGRRIYGVVAFNEWFTYFYWEVWGKGTQVTVSS
VL: SDISVAPGETVRISCGGESIGSRAVQWYQHRAGQAPKLIIYNNQDRPPGIPERFSGSPDIDFGTTATLTITNVEAGDEATYYCHIWDSRRPTNWVFGGGTTLTVL
neutralization (Table 6 value) [1]: 0.00199
neutralization (Table 6 value) [2]: 0.0053
neutralization (Table 6 value) [3]: 0.00172
neutralization (Table 6 value) [4]: 0.000864
neutralization (Table 6 value) [5]: 0.00203
neutralization (Table 6 value) [6]: 0.00351 and 0.00488
neutralization (Table 6 value) [7]: 0.00436
neutralization (Table 6 value) [8]: 0.00106
neutralization (Table 6 value) [9]: 0.275
neutralization (Table 6 value) [10]: 0.0109
neutralization (Table 6 value) [11]: 0.00689
neutralization (Table 6 value) [12]: 0.00194
neutralization (Table 6 value) [13]: 0.000842
neutralization (Table 6 value) [14]: 9e-06
neutralization (Table 6 value) [15]: 0.000582
neutralization (Table 6 value) [16]: 0.00206
neutralization (Table 6 value) [17]: 0.00143
neutralization (Table 6 value) [18]: 0.000443
neutralization (Table 6 value) [19]: 0.00326
neutralization (Table 6 value) [20]: 0.00136
neutralization (Table 6 value) [21]: 0.0222
neutralization (Table 6 value) [22]: 0.0116
neutralization (Table 6 value) [23]: 0.435
neutralization (Table 6 value) [24]: 0.00145
neutralization (Table 6 value) [25]: 0.00508
neutralization (Table 6 value) [26]: 0.0252
neutralization (Table 6 value) [27]: 0.00583
neutralization (Table 6 value) [28]: 0.00428 and 0.00241
neutralization (Table 6 value) [29]: 0.000174
neutralization (Table 6 value) [30]: 0.873
neutralization (Table 6 value) [31]: 0.00727
neutralization (Table 6 value) [32]: 0.0048 and 0.00672
neutralization (Table 6 value) [33]: 0.00837
Breadth [34]: 77%
GeoMean [34]: 0.004
